{"source": "patent US20240392251A1", "about": "“CULTURE MEDIUM AND CULTURE METHOD FOR LUNG CANCER EPITHELIAL CELLS, AND APPLICATION THEREOF” (PRECEDO PHARMACEUTICALS CO., LTD, priority 2021, published 2024)", "molecules": {"B1": {"name": "epidermal growth factor: growth factor from Sino Biological Inc. (protein, UniProt P01133 23-1207, looked up)", "Pro-epidermal growth factor": "PQHWSCPEGTLAGNGNSTCVGPAPFLIFSHGNSIFRIDTEGTNYEQLVVDAGVSVIMDFHYNEKRIYWVDLERQLLQRVFLNGSRQERVCNIEKNVSGMAINWINEEVIWSNQQEGIITVTDMKGNNSHILLSALKYPANVAVDPVERFIFWSSEVAGSLYRADLDGVGVKALLETSEKITAVSLDVLDKRLFWIQYNREGSNSLICSCDYDGGSVHISKHPTQHNLFAMSLFGDRIFYSTWKMKTIWIANKHTGKDMVRINLHSSFVPLGELKVVHPLAQPKAEDDTWEPEQKLCKLRKGNCSSTVCGQDLQSHLCMCAEGYALSRDRKYCEDVNECAFWNHGCTLGCKNTPGSYYCTCPVGFVLLPDGKRCHQLVSCPRNVSECSHDCVLTSEGPLCFCPEGSVLERDGKTCSGCSSPDNGGCSQLCVPLSPVSWECDCFPGYDLQLDEKSCAASGPQPFLLFANSQDIRHMHFDGTDYGTLLSQQMGMVYALDHDPVENKIYFAHTALKWIERANMDGSQRERLIEEGVDVPEGLAVDWIGRRFYWTDRGKSLIGRSDLNGKRSKIITKENISQPRGIAVHPMAKRLFWTDTGINPRIESSSLQGLGRLVIASSDLIWPSGITIDFLTDKLYWCDAKQSVIEMANLDGSKRRRLTQNDVGHPFAVAVFEDYVWFSDWAMPSVMRVNKRTGKDRVRLQGSMLKPSSLVVVHPLAKPGADPCLYQNGGCEHICKKRLGTAWCSCREGFMKASDGKTCLALDGHQLLAGGEVDLKNQVTPLDILSKTRVSEDNITESQHMLVAEIMVSDQDDCAPVGCSMYARCISEGEDATCQCLKGFAGDGKLCSDIDECEMGVPVCPPASSKCINTEGGYVCRCSEGYQGDGIHCLDIDECQLGEHSCGENASCTNTEGGYTCMCAGRLSEPGLICPDSTPPPHLREDDHHYSVRNSDSECPLSHDGYCLHDGVCMYIEALDKYACNCVVGYIGERCQYRDLKWWELRHAGHGQQQKVIVVAVCVVVLVMLLLLSLWGAHYYRTQKLLSKNPKNPYEESSRDVRSRRPADTEDGMSSCPQPWFVVIKEHQDLKNGGQPVAGEDGQAADGSMQPTSWRQEPQLCGMGTEQGCWIPVSSDKGSCPQVMERSFHMPSYGTQTLEGGVEKPHSLLSANPLWQQRALDPPHQMELTQ", "modifications": "Pro-epidermal growth factor"}}, "key": {"[1]": {"test_system": "lung cancer cells (No. B18)", "assay": "Effects of different factors added to basic medium BM on proliferation of primary lung cancer cells", "assay_type": "cell-based, human", "details": "factor added to BM at the concentrations of Table 3; 12 days of culture; FIGS. 1A-1D", "experimental": "Extracellular matrix gel (Matrigel®) (manufactured by Corning) was diluted with serum-free DMEM/F12 medium at a ratio of 1:100 to prepare an extracellular matrix diluent. The extracellular matrix diluent was added to a 48-well culture plate with 500 μl/well to completely cover the bottom of the wells of the culture plate. The culture plate was let stand for 1 hour in a 37° C. incubator. After 1 hour, the extracellular matrix diluent was removed to provide a Matrigel-coated plate.\nPreparation of basic medium (abbreviated as BM): BM was prepared by adding 0.2 vol. % of Primocin (purchased from Invivogen, with a concentration of 50 mg/ml) to the commercial DMEM/F-12 medium to provide a final concentration of 100 μg/ml.\nNext, different kinds and concentrations of additive factors (Table 3) were added to the basic medium (BM), so as to prepare culture mediums for lung cancer epithelial cells containing different additive components.\nThe culture mediums with different components were added at a volume of 500 μl/well to 48-well plates which were coated with extracellular matrix gel (Matrigel). Lung cancer cells (No. B18) isolated from lung cancer tissues according to the same method as described in Example 1 were inoculated at a cell density of 2×10^4 cells/cm^2 in the above-mentioned 48-well culture plates which were coated with Matrigel. […]"}, "[2]": {"test_system": "lung cancer epithelial cells (Sample No. B26)", "assay": "Effects of different concentrations of the additive factors on proliferation of primary lung cancer cells", "assay_type": "cell-based, human", "details": "added to No. 8 medium lacking the factor; cell number ratio to Blank Control; FIGS. 3A-3H", "experimental": "Extracellular matrix gel (Matrigel®) was diluted with serum-free DMEM/F12 medium at a ratio of 1:100 to prepare an extracellular matrix diluent. The extracellular matrix diluent was added to a 48-well culture plate with 200 μl/well to completely cover the bottom of the wells of the culture plate. The culture plate was let stand for 1 hour in a 37° C. incubator. After 1 hour, the extracellular matrix diluent was removed to provide a Matrigel-coated plate.\nNo. 8 culture medium for primary lung cancer epithelial cells was prepared.\nLung cancer epithelial cells derived from cancer tissues were isolated from the cancer tissue of a lung cancer patient (Sample No. B26) using the same method as in Example 1. Next, lung cancer epithelial cells derived from cancer tissues were counted with a flow imaging counter (JIMBIO FIL, Jiangsu Jimbio Technology Co., Ltd.) to get the total number of cells. Then, the cells were inoculated at a density of 4×10^4 cells/cm^2 in a 48-well plate which was coated with Matrigel®. […] The centrifuged cell pellet was resuspended in the basic medium BM and the cells were counted with a flow imaging counter (JIMBIO FIL, Jiangsu Jimbio Technology Co., Ltd.) to get the total number of cells. […]"}}}
{"molecule": "B1", "values": [{"measurement": "effect on cell proliferation (ratio of number of cells to that in basic medium BM)", "setting": "[1]", "value": "certain promoting effects on cell proliferation in specific concentration ranges"}, {"measurement": "amount in the culture medium, most preferably", "setting": "[2]", "value": 20, "unit": "ng/mL"}]}
